Key:
[1] = system: cell-surface antigens on SK-MEL 28 melanoma cells; test: Fluorescence activated cell sorting competition binding assay against FITC-modified whole L49; parameters: species or system human; conditions: FACS competition assay
Experimental: FIG. 7 depicts a competition binding assay. 3677 cells were incubated with various combinations of the test samples (L49, L49-sFv-bL, L49-Fab'-bL, and FITC-modified whole L49, keeping the total mAb concentration (test sample+L49-FITC) constant at 400 nM. Fluorescence intensity was determined by fluorescence activated cell sorter analysis.
Competition binding experiments were performed as described by Svensson et al.(Bioconjugate Chem., 3:176-181 (1992)). Immunoassays were performed by coating polystyrene 96 well plates with sp97 (0.1 mL, 2 μg/ml in PBS, overnight, 4° C.) After blocking with specimen diluent (Genetic Systems Corp.) for 1 h at 22° C., the blocking solution was replaced with fresh specimen diluent (0.1 ml) containing serial dilutions of the samples. After 1 h at 22° C. the plates were washed, followed by development with 0.1 mL of a nitrocefin (O'Callaghan et al., Antimicrobial Agents and Chemotherapy, 1:283-288 (1972)) solution (0.1 mM in PBS/1% dimethylformamide, 15 min, 22° C. Absorbance measurements were read in an plate reader using a 490 nm filter with 630 nm as the reference wavelength.
The binding characteristics of the sFv portion of the fusion protein were determined using a fluorescent activated cell sorting competition assay in which fusion protein and FITC-modified whole L49 competed for binding to cell-surface antigens on SK-MEL 28 melanoma cells. […]

[2] = Tissue distribution of immunoconjugates in nude mice bearing s.c. 3677 melanoma xenografts; assay type: in vivo
Experimental: Conjugate Localization. Subcutaneous 3677 melanoma tumors were established in female athymic nu/nu mice (8-12 weeks old, Harlan Sprague-Dawley, Indianapolis, Ind.) by transplanting tumors that had been previously passaged as previously described (Kerr et al., Cancer Res., 55:3558-3563 (1995)). Tumor bearing mice were injected i.v. with L49-sFv-bL (1 or 4 mg mAb component/kg) or with L49-Fab'-bL (1.8 mg mAb component/kg). At various time intervals, the mice were anesthetized, bled through the orbital plexus, and sacrificed. Tissues were removed and homogenized in PBS containing 15 μg/ml aprotinin (2 mL/g tissue). To the homogenate was added 50 mM sodium phosphate containing 100 mM NaCl at pH 11.2 (10 ml/g tissue), and the suspension was mixed. After 20 min at room temperature, 3M sodium phosphate at pH 7.0 was added (2 ml/g tissue), and the mixture was mixed and centrifuged.
Quantification of conjugate concentrations was accomplished using a direct enzyme immunoassay. Polystyrene 96-well microtiter plates were coated with an affinity-purified rabbit polyclonal antisera to wild type E. cloacae bL (1 μg/ml), and were then blocked with specimen diluent (Genetic Systems Corp.). Serially diluted tissue extracts or purified samples (L49-sFv-bL as a standard for the fusion protein samples, L49-Fab'-bL as a standard for the L49-Fab'-bL samples) were added to the wells and allowed to bind for 3 h at room temperature. The plates were washed and developed by the addition of 0.1 ml of nitrocefin (O'Callaghan et al., Antimicrobial Agents and Chemotherapy, 1:283-288 (1972)) at 0.1 mM in PBS containing 1% dimethylformamide. Absorbance measurements were read in an ELISA plate reader using a 490 nm filter with 630 nm as the reference wavelength.
In Vivo Localization. Biodistribution studies of L49-sFv-bL and L49-Fab'-bL were carried out in nude mice bearing subcutaneous (s.c.) 3677 melanoma tumor xenografts. The conjugates were injected i.v., and at various time points tissues were removed and extracted under alkaline conditions to disrupt antigen-antibody interactions. The samples were then trapped a polyclonal antiserum to bL, and bL activity was measured using nitrocefin as a colorimetric indicator (O'Callaghan et al, Antimicrobial Agents and Chemotherapy, 1:283-288 (1972)).

B1: L49-sFv-bL: recombinant fusion protein: L49 anti-p97 single-chain Fv (VH-218 linker-VL) fused to r2-1 mutant E. cloacae β-lactamase, SEQ ID NO: 20 (protein)
chain: MKYLLPTAAAGLLLLAAQPAMAEVQLQESGPSLVKPSQTLSLTCSVTGDSITSGYWNWIRKFPGNKLEYMGYISDSGITYYNPSLKSRISITRDTSKNQYYLQLNFVTAEDTATYNCARRTLATYYAMDYWGQGTSVTVSSGSTSGSGKPGSGEGSTKGDFVMTQTPLSLPVSLGDQASISCRASQSLVHSNGNTYLHWYLQKPGQSPKLLIYRVSNRFSGVPDRFSGSGSGTDFTLKISRVEAEDLGVYFCSQSTHVPPTFGGGTKLEIKRTPVSEKQLAEVVANTITPLMKAQSVPGMAVAVIYQGKPHYYTFGKADIAANKPVTPQTLFELGSISKTFTGVLGGDAIARGEISLDDAVTRYWPQLTGKQWQGIRMLDLATYTAGGLPLQVPDEVTDNASLLRFYQNWQPQWKPGTTRLYANASIGLFGALAVKPSGMPYEQAMTTRVLKPLKLDHTWINVPKAEEAHYAWGYRDGKAVRVSPGMLDAQAYGVKTNVQDMANWVMANMAPENVADASLKQGIALAQSRYWRIGSMYQGLGWEMLNWPVEANTVVETSFGNVALAPLPVAEVNPPAPPVKASWVHKTGSTGGFGSYVAFIPEKQIGIVMLANTSYPNPARVEAAYHILEALQTSEFE
binding to the cell line in competition with FITC-modified whole L49 [1]: bound equally well
tumor/tissue ratios Blood ([2]; 1 mg/kg i.v., 4 hrs): 13
tumor/tissue ratios Kidney ([2]; 1 mg/kg i.v., 4 hrs): 41
tumor/tissue ratios Liver ([2]; 1 mg/kg i.v., 4 hrs): 52
tumor/tissue ratios Spleen ([2]; 1 mg/kg i.v., 4 hrs): 79
tumor/tissue ratios Tumor ([2]; 1 mg/kg i.v., 4 hrs): 1
tumor/tissue ratios Blood ([2]; 1 mg/kg i.v., 12 hrs): 66
tumor/tissue ratios Kidney ([2]; 1 mg/kg i.v., 12 hrs): > 177
tumor/tissue ratios Liver ([2]; 1 mg/kg i.v., 12 hrs): > 177
tumor/tissue ratios Spleen ([2]; 1 mg/kg i.v., 12 hrs): > 177
tumor/tissue ratios Tumor ([2]; 1 mg/kg i.v., 12 hrs): 1
tumor/tissue ratios Blood ([2]; 1 mg/kg i.v., 24 hrs): 105
tumor/tissue ratios Kidney ([2]; 1 mg/kg i.v., 24 hrs): > 70
tumor/tissue ratios Liver ([2]; 1 mg/kg i.v., 24 hrs): > 70
tumor/tissue ratios Spleen ([2]; 1 mg/kg i.v., 24 hrs): > 70
tumor/tissue ratios Tumor ([2]; 1 mg/kg i.v., 24 hrs): 1
tumor/tissue ratios Blood ([2]; 4 mg/kg i.v., 12 hrs): 81
tumor/tissue ratios Kidney ([2]; 4 mg/kg i.v., 12 hrs): > 240
tumor/tissue ratios Liver ([2]; 4 mg/kg i.v., 12 hrs): > 240
tumor/tissue ratios Spleen ([2]; 4 mg/kg i.v., 12 hrs): > 240
tumor/tissue ratios Tumor ([2]; 4 mg/kg i.v., 12 hrs): 1
tumor/tissue ratios Blood ([2]; 4 mg/kg i.v., 24 hrs): 141
tumor/tissue ratios Kidney ([2]; 4 mg/kg i.v., 24 hrs): > 290
tumor/tissue ratios Liver ([2]; 4 mg/kg i.v., 24 hrs): > 290
tumor/tissue ratios Spleen ([2]; 4 mg/kg i.v., 24 hrs): > 290
tumor/tissue ratios Tumor ([2]; 4 mg/kg i.v., 24 hrs): 1
tumor/tissue ratios Blood ([2]; 4 mg/kg i.v., 48 hrs): 150
tumor/tissue ratios Tumor ([2]; 4 mg/kg i.v., 48 hrs): 1
tumor to blood ratios ([2]; 4 mg/kg, 24-48 h after the conjugate was administered): 141-151

Source: patent US6132722A, “Recombinant antibody-enzyme fusion proteins” (Bristol-Myers Squibb Company, priority 1998, dated 2000)
